Laboratory results published in patent publication EP4563596A1 (OncoSpear ApS, dated 2025).
Read-outs that look alike come from different tables or passages of the source.

What was measured:
[1] = molecular target: CD16 F158 (FcγRIIIA) on Jurkat reporter cells (human, UniProt P08637 17-254); experiment: cell-based or functional assay
[2] = molecular target: CD16 V158 (FcγRIIIA) on Jurkat reporter cells (human, UniProt P08637 17-254); experiment: cell-based or functional assay
[3] = molecular target: T1, human CD163 domain 1-9, recombinant, immobilized on a CM5 sensor chip (human, UniProt Q86VB7 42-1050, limits assumed); experiment: SPR (Biacore T200), human CD163 domain 1-9 immobilised on CM5 chip, antibody injected, 1:1 kinetic fit
T1 construct: the whole entry is named; also called immobilized CD163

[4] = molecular target: T1, human CD163 domain 1-9, recombinant, …; experiment: as above; remark: listed apart in the source

Chain of CD16 F158 (FcγRIIIA) on Jurkat reporter cells (P08637 17-254): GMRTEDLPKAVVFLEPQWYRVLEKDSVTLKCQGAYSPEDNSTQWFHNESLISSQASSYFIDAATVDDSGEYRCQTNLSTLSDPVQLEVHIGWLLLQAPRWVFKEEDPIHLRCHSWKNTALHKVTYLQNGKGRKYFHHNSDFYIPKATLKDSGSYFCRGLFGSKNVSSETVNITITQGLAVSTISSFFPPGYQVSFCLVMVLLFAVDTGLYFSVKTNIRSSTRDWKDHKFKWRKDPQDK
Chain of CD16 V158 (FcγRIIIA) on Jurkat reporter cells (P08637 17-254 F176V): as the sequence (P08637 17-254) above, with F160V counted along it
T1 sequence (Q86VB7 42-1050 limits assumed): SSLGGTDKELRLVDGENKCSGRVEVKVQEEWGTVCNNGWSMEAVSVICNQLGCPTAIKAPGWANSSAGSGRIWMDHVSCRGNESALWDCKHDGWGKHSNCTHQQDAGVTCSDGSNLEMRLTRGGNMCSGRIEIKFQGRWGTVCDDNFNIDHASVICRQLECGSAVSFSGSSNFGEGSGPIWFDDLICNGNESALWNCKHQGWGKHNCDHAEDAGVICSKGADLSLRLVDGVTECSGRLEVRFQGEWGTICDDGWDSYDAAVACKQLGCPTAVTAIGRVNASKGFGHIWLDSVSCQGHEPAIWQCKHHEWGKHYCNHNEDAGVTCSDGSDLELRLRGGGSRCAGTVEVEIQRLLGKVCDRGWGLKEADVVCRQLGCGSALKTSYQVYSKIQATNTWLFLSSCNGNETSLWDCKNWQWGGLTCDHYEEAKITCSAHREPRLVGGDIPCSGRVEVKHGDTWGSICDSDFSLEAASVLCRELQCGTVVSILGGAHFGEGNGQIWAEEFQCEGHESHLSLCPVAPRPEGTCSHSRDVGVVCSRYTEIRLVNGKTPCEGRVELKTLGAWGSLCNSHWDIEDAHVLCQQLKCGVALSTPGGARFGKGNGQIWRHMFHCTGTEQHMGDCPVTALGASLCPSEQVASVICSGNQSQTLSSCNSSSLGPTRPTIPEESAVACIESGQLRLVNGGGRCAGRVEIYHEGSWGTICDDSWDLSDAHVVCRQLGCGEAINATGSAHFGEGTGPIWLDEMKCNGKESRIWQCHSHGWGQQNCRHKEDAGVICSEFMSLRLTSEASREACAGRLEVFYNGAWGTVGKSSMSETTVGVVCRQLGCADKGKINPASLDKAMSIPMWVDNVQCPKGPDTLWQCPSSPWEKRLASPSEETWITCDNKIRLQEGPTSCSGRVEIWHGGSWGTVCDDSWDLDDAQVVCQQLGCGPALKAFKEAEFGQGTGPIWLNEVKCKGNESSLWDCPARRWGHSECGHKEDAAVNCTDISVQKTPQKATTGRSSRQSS

Binder | Relative EC50 ADCC F158 (low); target cells FlpIn293-hCD163 [1] | Relative EC50 ADCC V158 (high); target cells FlpIn293-hCD163 [2] | further results
OS000 (antibody) heavy: not shown light: DIVMTQSPSSLSASVGDRVTITCRASQSVSSDVAWFQQKPGKSPKPLIYYASNRYSGVPSRFSGSGSGTDFTLTISSLQAEDFAVYFCGQDYTSPRTFGGGTKLEIKRTVAAPSVFIFPPSDEQLKSGTASVVCLLNNFYPREAKVQWKVDNALQSGNSQESVTEQDSKDSTYSLSSTLTLSKADYEKHKVYACEVTHQGLSSPVTKSFNRGEC | 0 relative (EC50 OS001/EC50 construct) | 0 relative (EC50 OS001/EC50 construct) | –
OS008 (antibody, human IgG1, kappa) heavy: QVQLQESGPGLVKPSETLSLTCTVSGYSITSDYAWNWIRQFPGNKLEWMGYITYSGSTYYNPSLKSRVTISVDTSKNQFSLKLSSVTAADTATYYCVSGTYYFDYWGQGTTLTVSSASTKGPSVFPLAPSSKSTSGGTAALGCLVKDYFPEPVTVSWNSGALTSGVHTFPAVLQSSGLYSLSSVVTVPSSSLGTQTYICNVNHKPSNTKVDKKVEPKSCDKTHTCPPCPAPELLAGPDVFLFPPKPKDTLMISRTPEVTCVVVDVSHEDPEVKFNWYVDGVEVHNAKTKPREEQYNSTYRVVSVLTVLHQDWLNGKEYKCKVSNKALPLPEEKTISKAKGQPREPQVYTLPPSRDELTKNQVSLTCLVKGFYPSDIAVEWESNGQPENNYKTTPPVLDSDGSFFLYSKLTVDKSRWQQGNVFSCSVMHEALHNHYTQKSLSLSPGK light: DIVMTQSPSSLSASVGDRVTITCRASQSVSSDVAWFQQKPGKSPKPLIYYASNRYSGVPSRFSGSGSGTDFTLTISSLQAEDFAVYFCGQDYTSPRTFGGGTKLEIKRTVAAPSVFIFPPSDEQLKSGTASVVCLLNNFYPREAKVQWKVDNALQSGNSQESVTEQDSKDSTYSLSSTLTLSKADYEKHKVYACEVTHQGLSSPVTKSFNRGEC | 3.2 relative (EC50 OS001/EC50 construct) | 4.5 relative (EC50 OS001/EC50 construct) | –
OS007 (antibody, human IgG1, kappa) heavy: QVQLQESGPGLVKPSETLSLTCTVSGYSITSDYAWNWIRQFPGNKLEWMGYITYSGSTYYNPSLKSRVTISVDTSKNQFSLKLSSVTAADTATYYCVSGTYYFDYWGQGTTLTVSSASTKGPSVFPLAPSSKSTSGGTAALGCLVKDYFPEPVTVSWNSGALTSGVHTFPAVLQSSGLYSLSSVVTVPSSSLGTQTYICNVNHKPSNTKVDKKVEPKSCDKTHTCPPCPAPELLAGPDVFLFPPKPKDTLMISRTPEVTCVVVDVSHEDPEVKFNWYVDGVEVHNAKTKPREEQYNSTYRVVSVLTVLHQDWLNGKEYKCKVSNKALPAPEEKTISKAKGQPREPQVYTLPPSRDELTKNQVSLTCLVKGFYPSDIAVEWESNGQPENNYKTTPPVLDSDGSFFLYSKLTVDKSRWQQGNVFSCSVMHEALHNHYTQKSLSLSPGK light: DIVMTQSPSSLSASVGDRVTITCRASQSVSSDVAWFQQKPGKSPKPLIYYASNRYSGVPSRFSGSGSGTDFTLTISSLQAEDFAVYFCGQDYTSPRTFGGGTKLEIKRTVAAPSVFIFPPSDEQLKSGTASVVCLLNNFYPREAKVQWKVDNALQSGNSQESVTEQDSKDSTYSLSSTLTLSKADYEKHKVYACEVTHQGLSSPVTKSFNRGEC | 5.6 relative (EC50 OS001/EC50 construct) | 4 relative (EC50 OS001/EC50 construct) | –
OS018 (antibody, human IgG1, kappa, also called IgG1 HC D72E) heavy: not shown light: DIVMTQSPSSLSASVGDRVTITCRASQSVSSDVAWFQQKPGKSPKPLIYYASNRYSGVPSRFSGSGSGTDFTLTISSLQAEDFAVYFCGQDYTSPRTFGGGTKLEIKRTVAAPSVFIFPPSDEQLKSGTASVVCLLNNFYPREAKVQWKVDNALQSGNSQESVTEQDSKDSTYSLSSTLTLSKADYEKHKVYACEVTHQGLSSPVTKSFNRGEC | – | – | Kd [3]: 0.51 nM; koff [3]: 0.00033 s⁻¹; kon [3]: 650000 M⁻¹ s⁻¹
OS004 (antibody, human IgG1, kappa) heavy: QVQLQESGPGLVKPSETLSLTCTVSGYSITSDYAWNWIRQFPGNKLEWMGYITYSGSTYYNPSLKSRVTISVDTSKNQFSLKLSSVTAADTATYYCVSGTYYFDYWGQGTTLTVSSASTKGPSVFPLAPSSKSTSGGTAALGCLVKDYFPEPVTVSWNSGALTSGVHTFPAVLQSSGLYSLSSVVTVPSSSLGTQTYICNVNHKPSNTKVDKKVEPKSCDKTHTCPPCPAPELLGGPSVFLFPPKPKDTLMISRTPEVTCVVVDVSHEDPEVKFNWYVDGVEVHNAKTKPREEQYNYARVVSVLTVLHQDWLNGKEYKCKVSNKALPAPIAATISKAKGQPREPQVYTLPPSRDELTKNQVSLTCLVKGFYPSDIAVEWESNGQPENNYKTTPPVLDSDGSFFLYSKLTVDKSRWQQGNVFSCSVMHEALHNHYTQKSLSLSPGK light: DIVMTQSPSSLSASVGDRVTITCRASQSVSSDVAWFQQKPGKSPKPLIYYASNRYSGVPSRFSGSGSGTDFTLTISSLQAEDFAVYFCGQDYTSPRTFGGGTKLEIKRTVAAPSVFIFPPSDEQLKSGTASVVCLLNNFYPREAKVQWKVDNALQSGNSQESVTEQDSKDSTYSLSSTLTLSKADYEKHKVYACEVTHQGLSSPVTKSFNRGEC | 3.5 relative (EC50 OS001/EC50 construct) | 1.6 relative (EC50 OS001/EC50 construct) | –
OS022 (antibody, human IgG1, kappa, afucosylated glycan (GlymaxX expression), IgG1, HC D72E, afucosylated; also called IgG1 HC D72E afucosylated) heavy: not shown light: DIVMTQSPSSLSASVGDRVTITCRASQSVSSDVAWFQQKPGKSPKPLIYYASNRYSGVPSRFSGSGSGTDFTLTISSLQAEDFAVYFCGQDYTSPRTFGGGTKLEIKRTVAAPSVFIFPPSDEQLKSGTASVVCLLNNFYPREAKVQWKVDNALQSGNSQESVTEQDSKDSTYSLSSTLTLSKADYEKHKVYACEVTHQGLSSPVTKSFNRGEC | – | – | Kd [4]: 0.95 nM; koff [4]: 0.00049 s⁻¹; kon [4]: 520000 M⁻¹ s⁻¹
OS020 (antibody, human IgG1, kappa, IgG1, HC D72E and LC G89Q, wild type glycosylation; also called IgG1 HC D72E LC G89Q) heavy: not shown light: DIVMTQSPSSLSASVGDRVTITCRASQSVSSDVAWFQQKPGKSPKPLIYYASNRYSGVPSRFSGSGSGTDFTLTISSLQAEDFAVYFCQQDYTSPRTFGGGTKLEIKRTVAAPSVFIFPPSDEQLKSGTASVVCLLNNFYPREAKVQWKVDNALQSGNSQESVTEQDSKDSTYSLSSTLTLSKADYEKHKVYACEVTHQGLSSPVTKSFNRGEC | – | – | Kd [3]: 0.47 nM; koff [3]: 0.00022 s⁻¹; kon [3]: 470000 M⁻¹ s⁻¹
OS023 (antibody, human IgG1, kappa, afucosylated glycan (GlymaxX expression), IgG1, HC D72E and LC G89Q, afucosylated; also called IgG1 HC D72E LC G89Q afucosylated) heavy: not shown light: DIVMTQSPSSLSASVGDRVTITCRASQSVSSDVAWFQQKPGKSPKPLIYYASNRYSGVPSRFSGSGSGTDFTLTISSLQAEDFAVYFCQQDYTSPRTFGGGTKLEIKRTVAAPSVFIFPPSDEQLKSGTASVVCLLNNFYPREAKVQWKVDNALQSGNSQESVTEQDSKDSTYSLSSTLTLSKADYEKHKVYACEVTHQGLSSPVTKSFNRGEC | – | – | Kd [4]: 0.8 nM; koff [4]: 0.00037 s⁻¹; kon [4]: 460000 M⁻¹ s⁻¹
OS019 (antibody, human IgG1, kappa, also called IgG1 LC G89Q) heavy: not shown light: DIVMTQSPSSLSASVGDRVTITCRASQSVSSDVAWFQQKPGKSPKPLIYYASNRYSGVPSRFSGSGSGTDFTLTISSLQAEDFAVYFCQQDYTSPRTFGGGTKLEIKRTVAAPSVFIFPPSDEQLKSGTASVVCLLNNFYPREAKVQWKVDNALQSGNSQESVTEQDSKDSTYSLSSTLTLSKADYEKHKVYACEVTHQGLSSPVTKSFNRGEC | – | – | Kd [3]: 0.41 nM; koff [3]: 0.00021 s⁻¹; kon [3]: 520000 M⁻¹ s⁻¹

Now from value to binder, other results behind:

Relative EC50 ADCC F158 (low); target cells FlpIn293-hCD163 [1] | Relative EC50 ADCC V158 (high); target cells FlpIn293-hCD163 [2] | Binder | further results
1.3 relative (EC50 OS001/EC50 construct) | 1.5 relative (EC50 OS001/EC50 construct) | OS003 (antibody, human IgG1, kappa) heavy: not shown light: DIVMTQSPSSLSASVGDRVTITCRASQSVSSDVAWFQQKPGKSPKPLIYYASNRYSGVPSRFSGSGSGTDFTLTISSLQAEDFAVYFCGQDYTSPRTFGGGTKLEIKRTVAAPSVFIFPPSDEQLKSGTASVVCLLNNFYPREAKVQWKVDNALQSGNSQESVTEQDSKDSTYSLSSTLTLSKADYEKHKVYACEVTHQGLSSPVTKSFNRGEC | –
1.2 relative (EC50 OS001/EC50 construct) | 1.4 relative (EC50 OS001/EC50 construct) | OS010 (antibody, human IgG1, kappa) heavy: not shown light: DIVMTQSPSSLSASVGDRVTITCRASQSVSSDVAWFQQKPGKSPKPLIYYASNRYSGVPSRFSGSGSGTDFTLTISSLQAEDFAVYFCGQDYTSPRTFGGGTKLEIKRTVAAPSVFIFPPSDEQLKSGTASVVCLLNNFYPREAKVQWKVDNALQSGNSQESVTEQDSKDSTYSLSSTLTLSKADYEKHKVYACEVTHQGLSSPVTKSFNRGEC | –
1.5 relative (EC50 OS001/EC50 construct) | 0.9 relative (EC50 OS001/EC50 construct) | OS002 (antibody, human IgG1, kappa) heavy: not shown light: DIVMTQSPSSLSASVGDRVTITCRASQSVSSDVAWFQQKPGKSPKPLIYYASNRYSGVPSRFSGSGSGTDFTLTISSLQAEDFAVYFCGQDYTSPRTFGGGTKLEIKRTVAAPSVFIFPPSDEQLKSGTASVVCLLNNFYPREAKVQWKVDNALQSGNSQESVTEQDSKDSTYSLSSTLTLSKADYEKHKVYACEVTHQGLSSPVTKSFNRGEC | –
4 relative (EC50 OS001/EC50 construct) | 3.7 relative (EC50 OS001/EC50 construct) | OS016 (antibody, human IgG1, kappa) heavy: QVQLQESGPGLVKPSETLSLTCTVSGYSITSDYAWNWIRQFPGNKLEWMGYITYSGSTYYNPSLKSRVTISVDTSKNQFSLKLSSVTAADTATYYCVSGTYYFDYWGQGTTLTVSSASTKGPSVFPLAPSSKSTSGGTAALGCLVKDYFPEPVTVSWNSGALTSGVHTFPAVLQSSGLYSLSSVVTVPSSSLGTQTYICNVNHKPSNTKVDKKVEPKSCDKTHTCPPCPAPELLAGPSVFLFPPKPKDTLMISRTPEVTCVVVDVEFEDPEVKFNWYVDGVEVHNAKTKPREEQYNSTYRVVSVLTVLHQDWLNGKEYKCKVTNKALPAPEEKTISKAKGQPREPQVYTLPPSRDELTKNQVSLTCLVKGFYPSDIAVEWESNGQPENNYKTTPPVLDSDGSFFLYSKLTVDKSRWQQGNVFSCSVMHEALHNHYTQKSLSLSPGK light: DIVMTQSPSSLSASVGDRVTITCRASQSVSSDVAWFQQKPGKSPKPLIYYASNRYSGVPSRFSGSGSGTDFTLTISSLQAEDFAVYFCGQDYTSPRTFGGGTKLEIKRTVAAPSVFIFPPSDEQLKSGTASVVCLLNNFYPREAKVQWKVDNALQSGNSQESVTEQDSKDSTYSLSSTLTLSKADYEKHKVYACEVTHQGLSSPVTKSFNRGEC | –
